Experimental data published in US20060247419A1, “Translocation dependent complementation for drug screening” (BioImage A/S, priority 2002, published 2006).
Values belong to the compound of their own block, whether it stands above or below them.

Experiments:
[1] = target: FKBP and FRB (FKBP binding part of FRAP) (Homo sapiens, UniProt P42345+P62942); test: Rapamycin-inducible FKBP:FRB split-EYFP complementation, CHO-hIR [PS1767+PS1768] cells; assay type: cell-based; settings: 1 μM rapamycin
Description: Probes were co-transfected in pairs into CHO-hIR cells (supra), PS1769 with PS1771 and PS1767 with PS1768, using the transfection agent FuGENE™ 6 (Boehringer Mannheim Corp, USA) according to the method recommended by the suppliers. Cells were cultured in growth medium (HAM's F12 nutrient mix with Glutamax-1, 10% foetal bovine serum (FBS), 100 μg penicillin-streptomycin mixture ml^−1 (GibcoBRL, supplied by Life Technologies, Denmark)). Transfected cells were cultured in this medium, with the addition of two selection agents appropriate to the plasmids being used, being 1 mg/ml zeocin plus 0.5 mg/mlG418 sulphate. Cells were cultured at 37° C. in 100% humidity and conditions of normal atmospheric gases supplemented with 5% CO2.
After 10 to 12 days culture in the continuous presence of the selection agents, the resulting cell lines were judged to be stably transfected. For fluorescence microscopy, aliquots of cells were transferred to Lab-Tek chambered cover glasses (Nalge Nunc International, Naperville USA) and allowed to adhere for at least 24 hours to reach about 80% confluence. Images were routinely collected using a Nikon Diaphot 300 inverted fluorescence microscope (Nikon Corp., Tokyo, Japan) using x20 (dry) and/or x40 (oil immersion) objectives and coupled to a Orca ER charged coupled device (CCD) camera (Hammamatsu Photonics K.K., Hammamatsu City, Japan). […]

[2] = target: FKBP-CtermEYFP173 (human; Aequorea victoria) (UniProt P62942); test: cell-based or functional assay
[3] = target: FRB-CtermEYFP173 (human; Aequorea victoria) (UniProt P42345); test: cell-based or functional assay
[4] = tested on: β-catenin translocation to the nucleus and interaction with TCF4 (GSK3β inhibited by lithium ions); test: TIDC: β-catenin translocation and β-catenin:TCF4 interaction dependent complementation, CHO[ps1706+ps1810]; assay type: cell-based, chinese hamster; settings: 5 mM LiCl for 16 hours
Source text: In this example, complementary halves of GFP are fused separately to β-catenin and also to histone H2B coupled to the β-catenin-binding fragment of the transcriptional co-activator TCF4. Both constructs are then co-transfected and expressed within mammalian cells. The β-catenin construct is expected to be localised entirely in the cell cytoplasm at a low level, its concentration effectively controlled by the activity of the protein kinase GSK3β. The H2B-TCF4 construct will be localised in the nuclei of cells by the highly basic histone moeity. […] The development of nuclear fluorescence in lithium-treated cells therefore effectively reports on the combined result of translocation of β-catenin to the nucleus and the subsequent interaction between β-catenin and the β-catenin binding domain of TCF4. […]
After 10 to 12 days culture in the continuous presence of the selection agents, the resulting cell lines were judged to be stably transfected. For fluorescence microscopy, aliquots of cells were transferred to Lab-Tek chambered cover glasses (Nalge Nunc International, Naperville USA) and allowed to adhere for at least 24 hours to reach about 80% confluence. Images were collected using a Zeiss LSM410 inverted confocal fluorescence microscope (Zeiss, Jena, Germany) using x40 (oil immersion) objective. […]

[5] = tested on: translocation of β-catenin to the nucleus (GSK3β inhibited by lithium; FKBP:FRB induced by rapamycin); test: TDCrap: β-catenin translocation dependent complementation with rapamycin-inducible FKBP:FRB, CHO ps1809 with ps1827; assay type: cell-based, chinese hamster; settings: 5 mM LiCl for 16 hours
Source text: In this example, complementary halves of GFP are fused separately to β-catenin and to histone H2B and co-expressed within cells. The β-catenin construct is expected to be localised entirely in the cell cytoplasm at a low level, its concentration effectively controlled by the activity of the protein kinase GSK3β. The H2B construct will be localised in the nuclei of cells by the highly basic histone moeity. […] Both constructs have also been engineered to contain inducible interaction domains. […] The H2B construct includes FRB, which is the 93 amino acid portion of FRAP, the large PI3Kinase homolog FRAP (also known as mTOR or RAFT).
Plasmids ps1809 with ps1827 were co-transfected into chinese hamster ovary cells (CHO) using the transfection agent FuGENE™ 6 (Boehringer Mannheim Corp, USA) according to the method recommended by the suppliers. […]
After 10 to 12 days culture in the continuous presence of the selection agents, the resulting cell lines were judged to be stably transfected. For fluorescence microscopy, aliquots of cells were transferred to Lab-Tek chambered cover glasses (Nalge Nunc International, Naperville USA) and allowed to adhere for at least 24 hours to reach about 80% confluence. […] Images were collected using a Zeiss LSM410 inverted confocal fluorescence microscope (Zeiss, Jena, Germany) using x40 (oil immersion) objective. […]

[6] = tested on: translocation of β-catenin to the nucleus (GSK3β inhibited by lithium ions); test: TDCzip: β-catenin translocation dependent complementation with leucine zippers, CHO[ps1736+ps1758]; assay type: cell-based, chinese hamster; settings: 5 mM LiCl for 16 hours
Source text: In this example, complementary halves of GFP are fused separately to β-catenin and to histone H2B and co-expressed within cells. The β-catenin construct is expected to be localised entirely in the cell cytoplasm at a low level, its concentration effectively controlled by the activity of the protein kinase GSK3β. The H2B construct will be localised in the nuclei of cells by the highly basic histone moeity. […] However, when GSK3β is inhibited by lithium ions, the cytoplasmic level of the β-catenin construct is expected to increase in the cytoplasm, and to translocate in significant fashion to the nucleus. Both constructs have been engineered to contain a leucine zipper domain. […] The development of nuclear fluorescence in lithium-treated cells therefore effectively reports on the translocation of β-catenin to the nucleus. […]
After 10 to 12 days culture in the continuous presence of the selection agents, the resulting cell lines were judged to be stably transfected. For fluorescence microscopy, aliquots of cells were transferred to Lab-Tek chambered cover glasses (Nalge Nunc International, Naperville USA) and allowed to adhere for at least 24 hours to reach about 80% confluence. […] Image collection, subsequent measurement and analysis of fluorescence intensity were all controlled by IPLab Spectrum for Windows software (Scanalytics, Fairfax, Va. USA). […]

- proportion of cells with significantly greater EYFP fluorescence ([1]; after 4 hours): approximately 40%
- proportion of the cell population responding ([1]; after 16 hours): approximately 70%
Compound: CO[C@H]1C[C@@H]2CC[C@@H](C)[C@@](O)(O2)C(=O)C(=O)N2CCCC[C@H]2C(=O)O[C@H]([C@H](C)C[C@@H]2CC[C@@H](O)[C@H](OC)C2)CC(=O)[C@H](C)/C=C(\C)[C@@H](O)[C@@H](OC)C(=O)[C@H](C)C[C@H](C)/C=C/C=C/C=C/1C [rapamycin]

- EC50 of FK506 in competition with 100 nM rapamycin, EYFP fluorescence/cell, 16 hours, 'mid to low-green' group [2]: 1200 nM
- EC50 of rapamycin, dose-response of EYFP fluorescence at 7 and 30 hours, 'black' FACS group [2]: 100 nM
- EC50 of rapamycin, dose-response of EYFP fluorescence at 7 and 30 hours, 'medium to low-green' FACS group [2]: 250 nM
- half-time for development of cellular EYFP fluorescence after 3 µM rapamycin [2]: 5 h
- increase in EYFP fluorescence with rapamycin over the unstimulated value, 'medium to low-green' and 'black' FACS groups [2]: > 20 fold
- share of cells responding 16 hours after 1 µM rapamycin [2]: 70 % of cells
- share of cells with EYFP fluorescence before rapamycin (t=0) [2]: < 5 % of cells
- share of cells with greater EYFP fluorescence 4 hours after 1 µM rapamycin [2]: 40 % of cells
Compound: NtermE[F64L]YFP172-FRB (from UniProt P42345 2025-2114)

- EC50 of FK506 in competition with 100 nM rapamycin, EYFP fluorescence/cell, 16 hours, 'black' group [3]: 1200 nM
Compound: NtermE[F64L]YFP172-FKBP (from UniProt P62942 1-108)

Compound: [Cl-].[Li+] [LiCl, lithium chloride]
- number of cells containing fluorescent GFP (nuclear) [4]: the number of cells containing fluorescent GFP increases greatly
- number of cells containing fluorescent GFP (nuclear) [5]: the number of cells containing fluorescent GFP increases greatly
- cells with GFP-bright nuclei [6]: a fraction of these cells display GFP-bright nuclei
